Experimental data reported in patent publication US20220073563A1 (ZHEJIANG DOER BIOLOGICS, published 2022).

Tests used:
VEGF [1] = biological target: T1, VEGF (UniProt P15692-4 27-191, limits assumed); experiment: BLI (Octet-QK), biotin-labeled VEGF on SA probe; repeat 1
T1 construct: In the BLI assay the VEGF was biotin-labeled (Sulfo-NHS biotin, molar ratio 2:1) and loaded on an SA probe
Excerpt: (§1) The binding affinity of the fusion protein is detected using BLI(Bio-layer inteferometry, ForteBio). […] Biotin not involved in labeling is removed by dialysis. […] The buffer used in the experiment is PBS (containing 0.1% Tween-20). […] Based on the program settings, the fusion protein is bound, and then dissociated in PBST solution, to obtain the experimental curve. According to the result analysis software of Octet-QK, local full is used to fit the curve of the experimental results, to calculate kon, kdis and Kd.

VEGF [2] = biological target: T1, VEGF; experiment: BLI (Octet-QK), biotin-labeled VEGF on SA probe; repeat 2
Excerpt: as §1

VEGF [3] = biological target: T1, VEGF; experiment: BLI (Octet-QK), biotin-labeled VEGF on SA probe; repeat 3
Excerpt: as §1

VEGF [4] = biological target: T1, VEGF; experiment: BLI (Octet-QK), biotin-labeled VEGF on SA probe; average value of 3 repeats
Excerpt: as §1

VEGF [5] = biological target: T1, VEGF; experiment: VEGF receptor competitive inhibition ELISA: sample in 3-fold dilutions premixed with 1 µg/mL VEGF, added to coated VEGF Receptor 2/KDR, bound VEGF detected with anti-VEGF antibody
Method: Blocking the ELISA plate with 1% BSA/TBS and placing at 37° C. for 2 h. […] The KDR-coated ELISA plate is washed twice and pat-dried. Then, the gradiently diluted mixture samples are successively transferred to the ELISA plate and placed at 37° C. for 1 h, then the plate is washed 5 times. […] The plate is placed at 37° C. for 1 h and washed 5 times. […] The plate is placed at 37° C. for 1 h and washed for 6 times. After the reaction, adding the color developing solution, and developing the color at 37° C. for 15 min. Adding the stop buffer to terminate the color reaction. Reading the OD450 value on the microplate reader.

T1 sequence (P15692 other isoform, or with tags, fused parts or gaps limits assumed): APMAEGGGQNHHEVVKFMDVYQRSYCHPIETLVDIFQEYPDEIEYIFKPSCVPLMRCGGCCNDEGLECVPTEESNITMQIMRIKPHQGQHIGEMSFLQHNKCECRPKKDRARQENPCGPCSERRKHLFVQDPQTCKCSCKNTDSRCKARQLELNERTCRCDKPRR

B1: ankyrin repeat protein binding to VEGF (designed binder)
chain: GSDLDKKLLEAARAGQDDEVRILMANGADVNARDSTGWTPLHLAAPWGHPEIVEVLLKNGADVNAADFQGWTPLHLAAAVGHLEIVEVLLKYGADVNAQDKFGKTAFDISIDNGNEDLAEILQKAA
notes: Unfused ARVEGF used as comparator; also called ARVEGF
VEGF [1]
  Kd: 0.55 nM
VEGF [2]
  Kd: 0.47 nM
VEGF [3]
  Kd: 0.59 nM
VEGF [4]
  Kd: 0.54 nM
VEGF [5]
  IC50: 0.64 nM
